System: IgE antibody in the serum of a fish-allergic patient
Assay: Immunoblotting of two-dimensional electrophoresis patterns of fish meat proteins with patient serum
Type: binding, human
Settings: for spots detected by immunoblotting, different from spots with serum of non-fish-allergic subject: proteins contained in salmon meat, serum from fish-allergic patient 2 (FIG. 1B left); for specific binding to IgE antibodies from fish-allergic patients: spots in two-dimensional electrophoresis gel of proteins in fish, patients diagnosed with immediate-type allergy
Method: Proteins contained in fish were analyzed by the aforementioned technique to identify antigens of an allergy to fish. To be specific, proteins were extracted from fish meat and subjected to two-dimensional electrophoresis under the conditions described below.
The electrophoresis in the first dimension was isoelectric focusing, which was performed using isoelectric focusing gels with a gel-strip length of 5 to 10 cm and a gel pH range of 3 to 10. The pH gradient of the gels in the direction of electrophoresis was as follows: with the total gel-strip length being taken as 1, the gel-strip length up to pH 5 was “a=0.15 to 0.3”, the gel-strip length from pH 5 to 7 was “b=0.4 to 0.7”, and the gel-strip length above pH 7 was “c=0.15 to 0.3”. More specifically, the isoelectric focusing was performed using the IPG gels, Immobiline Drystrip (pH3-10NL), produced by GE Healthcare Bio-Sciences Corporation (hereinafter abbreviated as “GE”). The electrophoresis system used was IPGphor produced by GE. The maximum current of the electrophoresis system was limited to 75 μA per gel strip. The voltage program adopted to perform the first-dimensional isoelectric focusing was as follows: (1) a constant voltage step was performed at a constant voltage of 300 V until the volt-hours reached 750 Vhr (the current variation width during electrophoresis for 30 minutes before the end of this step was 5 μA); (2) the voltage was increased gradually to 1000 V for 300 Vhr; (3) the voltage was further increased gradually to 5000 V for 4500 Vhr; and then (4) the voltage was held at a constant voltage of 5000 V until the total Vhr reached 12000.
The electrophoresis in the second dimension was SDS-PAGE, which was performed using polyacrylamide gels whose gel concentration at the distal end in the direction of electrophoresis was set to 3 to 6% and whose gel concentration at the proximal end was set to a higher value than that at the distal end. More specifically, the SDS-PAGE was performed using NuPAGE 4-12% Bris-Tris Gels (IPG well, Mini, 1 mm) produced by Life Technologies. The electrophoresis system used was XCell SureLock Mini-Cell produced by Life Technologies. The electrophoresis was run at a constant voltage of 200 V for about 45 minutes using an electrophoresis buffer composed of 50 mM MOPS, 50 mM Tris base, 0.1% (w/v) SDS and 1 mM EDTA.
Identification of antigens by immunoblotting was carried out by taking all the steps up to the step of “Second-dimensional SDS-PAGE” as described above in Example 1, followed by the steps of “Transfer to membrane”, “Immunoblotting” and “Analysis” as described below.
To be specific, proteins in the second-dimensional electrophoresis gels were transferred to a membrane (PVDF membrane) according to the following procedure. • (1) The PVDF membrane was immersed in 100% methanol followed by milliQ water, and then moved into the transfer buffer to hydrophilize the PVDF membrane. • (2) After sponge, filter paper, the second-dimensional electrophoresis gels treated by second-dimensional SDS-PAGE, the hydrophilized PVDF membrane, filter paper, and sponge were put in place in this order, the transfer system was energized at a constant voltage of 30 V for one hour. Immunoblotting
Immunoblotting of the membrane was carried out using, as a primary antibody, a serum sample from patient 1 with a fish allergy or a serum sample from a non-fish-allergic subject. This fish-allergic patient 1 was a patient diagnosed with immediate-type allergy to fish. […]

specific binding to IgE antibodies from fish-allergic patients | Molecule | spots detected by immunoblotting, different from spots with serum of non-fish-allergic subject
specific binding to IgE antibodies | Myosin-binding protein C, fast-type-like (protein, myosin-binding protein C, fast-type-like) MPEAADAVKPEGEEGEAPAEAEENTAEDDEPLPEGEEGAHQSQEITGLFLQHPETTVAITGTDIVFTAKVDSTTLSRKPTIKWLKGKWLDLGSKAGKHMQFKETFDRATKIYTWDMKIIKVVPGDAGAYRCEVTSKDKCDSSAFDISVEAVQIEEEHDSLAAFKRTDAGEDEGSLDFSALLKATKKKKKPVVDEEKADVWEILKNAQPSEYEKIAFEYGITDLRGLLKRLKKMKTVEPKHSDAFLKRMESAYSVDKGKKIVLQVEVVDPNAQVKWLKNGQEIKSSAKYIIESVGNIRTLTINKCSLADDAAYECVIGEEKSFTEVFVKEPPVTITKLLDDYHVVVGERVEFEVEVSVEGAHVNWMFEDQELSRDTHKYRFKKDGLKHMLIIQEATLDDIGMYWCFTNGGRTKGELEVEEKELEVLQNIADLTVKAEDQAMFKCEVSDEKVTGKWLKDGVEVLPSSRIKLTHIGRIHRLTIDDVKPEDAGDYTFIPDGYALSLSAKLNFLEIKIDYVPRQEPPKIHLDTTGNMVSQNTIIVVAGNKLRLDVEISGEPPPTVVWAKGDTAITAVEGRVRTESRKDLSCFVIEGAEREDEGNYTIIVTNPAGEDKAHLFVKIVDVPDCPENVKCTSVGEDCATMVWDPPKFDGGAPVTGYLMERKKKGSTRWTKLNFDVYEGVTYEAKRMIEGVLYEMRVYAVNGIGMSQPSLNSKPFMPIAATSEPLGLKVHDVTDTTCTLKWLAPEKIGAGGLDGYVIEYCKEGDTEWVVANTELVERQNYTVRNLPTAEKINFRVVAVNIAGRSPPTGLSQPVTIREIVELPKIRLPRYLRQKYIRRVGDKINLTIPFQGKPRPKVQWYKDGEELDTRVASIRNSEVDSILFIRSAERSHSGKYELVLQIENMEARAILEIRIVEAPGPPEVVKVTDVWGFNAALEWKPPKDDGNCEITGYTIQKADKKTNEWFTIYEHNRRTNCTASDLIMGNEYMFRVFSENLVGKSEDFCLSKDTAIIPKIGLEYNPPPFKEKDMQSAPKFIQPLLDRSVVAGYSTTISSAVKTCPKPKIRWLRNKIPLDENPRFLMQNNQGVLTLNIRKPSQYDGGKFTCKAINSLGEDVVECTLLVRALKDKEDGDEK | newly detected
specific binding to IgE antibodies | Glycogen phosphorylase, muscle form-like (protein, glycogen phosphorylase, muscle form-like) MSKPLSDHDKRKQISVRGLAGVENVAELKVAFNRHLHFTLVKDRNVANKRDYYFALANTVRDHLVGRWIRTQQYYYEKDPKRVYYISLEFYMGRTLQNTMVNLALENACDEAIYQLGLDMEELEDMEEDAGLGNGGLGRLAACFLDSMASLGLAAYGYGIRYEFGIFNQKIVNGWQVEEADDWLRYGNPWEKARPEYMRPVKFYGRTEHTPDGVKWVDTQVVLALPYDTPIPGYRNNIVNTMRLWSAKAPCDFNLKDFNVGGYIQAVLDRNLCENISRVLYPNDNFFEGKELRLKQEYFVVAATLQDVVRRFKASKFGSREIVRTDFAELPNKVAIQLNDTHPAMAIPELMRVLVDEEKLGWDKAWDVCVRTCAYTNHTVLPEALERWPIDLFHHLLPRHLEIIYEINRRFMEYVASKFPGDNDRLRRMSLIEEGGCKKVNMAHLCIVGSHAVNGVARIHSEILIATLFKDFYELDPHKFQNKTNGITPRRWLVMCNPGLAEVIAEKIGEEFIRDLDQLKRLLKFVNDDAFIRDIAKVKQENKLKFAVHLEEHYKVKINPQSMFDFQVKRIHEYKRQLLNCLHMITYYNRIKKEPNKHWTPRTIMVGGKAAPGYHTAKMIIRLITAIGEVVNHDPVVGDRLKVIFLENYRVTLAEKAIPSADLSEQISTAGTEASGTGNMKFMLNGALTIGTMDGANVEMAEEAGEENFFIFGMRVEDVDAMDAGKGYHASEYYNRIPELKQAMDQIAGGFFSPKQPDLFKELVDLLMHHDRFKVFADYEAYIKCQDKVNQLYKNPKEWTKMVIHNIAGCGKFSSDRTIAQYAREIWGMEPSLEKIPAPDEKLK | newly detected

Source: patent US12630594B2, “Allergy antigen and epitope for same” (HOYU CO., LTD., priority 2017, dated 2026)
